# Experimental data: IntAct's records for PubMed 18154663
# B1: RalBP1-associated Eps domain-containing protein 2 (Homo sapiens), Q8NFH8 (parent)
# chain: MEAAAAAAAAAAAAAAAGGGCGSGPPPLLLSEGEQQCYSELFARCAGAAGGGPGSGPPEAARVAPGTATAAAGPVADLFRASQLPAETLHQITELCGAKRVGYFGPTQFYIALKLIAAAQSGLPVRIESIKCELPLPRFMMSKNDGEIRFGNPAELHGTKVQIPYLTTEKNSFKRMDDEDKQQETQSPTMSPLASPPSSPPHYQRVPLSHGYSKLRSSAEQMHPAPYEARQPLVQPEGSSSGGPGTKPLRHQASLIRSFSVERELQDNSSYPDEPWRITEEQREYYVNQFRSLQPDPSSFISGSVAKNFFTKSKLSIPELSYIWELSDADCDGALTLPEFCAAFHLIVARKNGYPLPEGLPPTLQPEYLQAAFPKPKWDCQLFDSYSESLPANQQPRDLNRMEKTSVKDMADLPVPNQDVTSDDKQALKSTINEALPKDVSEDPATPKDSNSLKARPRSRSYSSTSIEEAMKRGEDPPTPPPRPQKTHSRASSLDLNKVFQPSVPATKSGLLPPPPALPPRPCPSQSEQVSEAELLPQLSRAPSQAAESSPAKKDVLYSQPPSKPIRRKFRPENQATENQEPSTAASGPASAATMKPHPTVQKQSSKQKKAIQTAIRKNKEANAVLARLNSELQQQLKEVHQERIALENQLEQLRPVTVL
# partner: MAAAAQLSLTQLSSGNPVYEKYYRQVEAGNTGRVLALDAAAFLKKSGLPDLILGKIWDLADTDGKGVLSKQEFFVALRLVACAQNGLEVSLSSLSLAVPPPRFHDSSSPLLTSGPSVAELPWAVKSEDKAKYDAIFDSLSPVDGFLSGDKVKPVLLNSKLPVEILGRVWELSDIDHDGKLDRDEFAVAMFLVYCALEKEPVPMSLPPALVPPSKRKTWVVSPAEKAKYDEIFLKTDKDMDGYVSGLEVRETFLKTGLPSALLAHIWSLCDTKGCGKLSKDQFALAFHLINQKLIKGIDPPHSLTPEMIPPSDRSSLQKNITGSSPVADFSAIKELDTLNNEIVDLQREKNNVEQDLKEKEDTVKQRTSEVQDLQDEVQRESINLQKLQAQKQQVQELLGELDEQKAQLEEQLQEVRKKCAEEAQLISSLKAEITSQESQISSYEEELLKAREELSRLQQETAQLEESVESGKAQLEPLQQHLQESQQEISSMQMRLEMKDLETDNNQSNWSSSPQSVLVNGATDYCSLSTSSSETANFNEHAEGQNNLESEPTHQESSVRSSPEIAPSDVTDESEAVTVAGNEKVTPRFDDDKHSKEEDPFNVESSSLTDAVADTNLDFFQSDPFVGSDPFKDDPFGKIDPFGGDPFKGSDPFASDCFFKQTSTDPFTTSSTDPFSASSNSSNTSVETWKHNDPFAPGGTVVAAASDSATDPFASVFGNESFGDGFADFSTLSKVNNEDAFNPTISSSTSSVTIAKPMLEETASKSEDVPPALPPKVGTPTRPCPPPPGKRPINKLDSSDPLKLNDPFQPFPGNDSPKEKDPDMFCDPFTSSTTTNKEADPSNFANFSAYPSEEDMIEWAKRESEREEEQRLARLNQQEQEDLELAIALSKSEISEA
# Tests used:
# Settings in all cases: with eps15_mouse Eps15, P42567
# [1] = variants of: B1
# [2] = variants of: B1; remark: listed apart in the source
# [3] = variants of: B1; remark: listed apart in the source
# [4] = variants of: B1; remark: listed apart in the source
Variant,effect of a mutation on the interaction [1],effect of a mutation on the interaction [2],effect of a mutation on the interaction [3],effect of a mutation on the interaction [4]
K312A,decreasing interaction,disrupting interaction,,
W324A,,,decreasing interaction,
K351A,,disrupting interaction,,decreasing interaction
